In patent publication US20250297255A1 (ARSENAL BIOSCIENCES, published 2025):

T1: SLC34A2 peptide fragment (peptide 1) (human, biotinylated (site not stated))
T1 construct: ELISA antigen captured on NeutrAvidin plates; also called SLC34A2 peptide immunogen
T1 peptide: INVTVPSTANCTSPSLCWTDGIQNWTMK

T2: ECL-mFc fusion protein (human SLC34A2 ECL2 fused to murine Fc) (human, biotinylated (site not stated))
T2 construct: The range 234-362 is the ECL2 part counted on human SLC34A2; also called mECL2-Fc protein
T2 chain: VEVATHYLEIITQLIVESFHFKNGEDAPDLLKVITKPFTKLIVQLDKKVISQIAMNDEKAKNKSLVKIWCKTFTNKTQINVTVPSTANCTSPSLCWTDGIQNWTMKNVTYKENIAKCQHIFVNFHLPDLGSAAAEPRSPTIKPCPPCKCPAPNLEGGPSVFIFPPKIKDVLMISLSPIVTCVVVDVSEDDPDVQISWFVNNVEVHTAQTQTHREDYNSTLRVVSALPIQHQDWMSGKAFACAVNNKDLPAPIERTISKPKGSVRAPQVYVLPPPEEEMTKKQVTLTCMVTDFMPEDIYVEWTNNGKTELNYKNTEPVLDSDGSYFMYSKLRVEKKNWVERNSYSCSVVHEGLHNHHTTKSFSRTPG

T3: Human Solute Carrier Family 34 Member 2 (SLC34A2) (human, UniProt O95436 1-690)
T3 construct: Endogenous on OVCAR-3 cells; engineered on 786-O cells in the CAR kinetics assay; also called NaPi2b; NPT2B
T3 sequence: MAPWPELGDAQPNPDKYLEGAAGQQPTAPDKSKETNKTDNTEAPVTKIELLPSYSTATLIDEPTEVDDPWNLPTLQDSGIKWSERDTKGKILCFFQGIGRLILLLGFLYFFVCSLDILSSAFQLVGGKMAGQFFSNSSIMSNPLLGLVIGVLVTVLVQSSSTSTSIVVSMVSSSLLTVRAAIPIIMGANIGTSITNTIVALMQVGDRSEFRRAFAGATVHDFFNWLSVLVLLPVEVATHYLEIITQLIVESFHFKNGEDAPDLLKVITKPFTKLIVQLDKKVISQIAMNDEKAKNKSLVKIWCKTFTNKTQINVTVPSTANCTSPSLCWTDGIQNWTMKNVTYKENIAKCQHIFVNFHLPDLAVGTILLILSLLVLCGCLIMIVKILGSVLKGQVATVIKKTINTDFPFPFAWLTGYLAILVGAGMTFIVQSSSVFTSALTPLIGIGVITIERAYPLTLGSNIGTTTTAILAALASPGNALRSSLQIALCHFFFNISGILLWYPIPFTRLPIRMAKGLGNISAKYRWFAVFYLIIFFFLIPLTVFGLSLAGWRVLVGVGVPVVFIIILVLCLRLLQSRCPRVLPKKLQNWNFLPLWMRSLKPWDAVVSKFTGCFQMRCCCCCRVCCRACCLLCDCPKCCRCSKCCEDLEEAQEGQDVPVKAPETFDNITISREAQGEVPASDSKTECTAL


Key:
[1] = target: T1, SLC34A2 peptide fragment (peptide 1); assay: ELISA, biotinylated antigen on NeutrAvidin plate, anti-human Fc-HRP
Experimental: (§1) Briefly, NeutrAvidin plates were coated at 1 μg/ml overnight, washed and incubated with blocking buffer for at least 1 hr. Biotinylated antigens as well as irrelevant antigens were then added at 1 μg/ml for at least 1 hr at RT, followed by rigorous washing. […] After additional wash steps, 3,3′,5,5′-Tetramethylbenzidine (TMB) substrate was added and optical density read using an appropriate plate reader.

[2] = target: T2, ECL-mFc fusion protein (human SLC34A2 …); assay: as above
Experimental: as §1

[3] = target: T3, Human Solute Carrier Family 34 Member 2 …; assay: flow cytometry on OVCAR-3 cells (endogenous human SLC34A2), hIgG1/kappa, 8 five-fold dilutions from 133 nM;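 also: binding read as geometric mean fluorescence intensity, with non-transfected HEK293 cells serving as the negative control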
Text: Antibodies were screened by standard flow cytometry methods for binding to human OVCAR-3 human ovarian cancer cells which endogenously express human SLC34A2. HEK293 cells were used as a non-transfected negative control. […] Stained cells were then resuspended in cold FACS buffer and analyzed by flow cytometry for geometric mean fluorescent intensity (GeoMFI) and total cell counts on an iQue automated flow cytometer.

Binder | binding result [1] | binding result [2] | EC50 [3] | Max Signal by flow cytometry [3]
SLC34A2 Ab 14 (antibody, human IgG1, kappa, V domains shown, recombinant hIgG1/kappa) VH: QVQLQESGPGLVKPSETLSLTCTVSGGSVSSGSYYWSWIRQPPGKGLEWIGYIFYSGSTYYNPSLKSRVTISVDTSKNQFSLKLTSVTAADTAVYFCARWMTTVKGYFDYWGQGTLVTVSS VL: EIVLTQSPDFQSVTPKESVTITCRASQSVGSGLHWYQQKPDQSPKLLIKYASQSFSGVPSRFSGSGSGTDFTLTINSLEAEDAATYYCLQSSSLPWTFGQGTKVEIKR | binds | binds | 9 nM | 288
SLC34A2 Ab 2 (antibody, human IgG1, kappa, V domains shown, recombinant hIgG1/kappa from TAP products in Expi293) VH: QVQLQESGPGLVKPSETLSLTCTVSGGSVSSGSYYWSWIRQAPGKGLEWIGYIYYSGSNYYNPSLKSRVTISVDTSKNQFSLKLRAVTAADTAVYYCARWMTTIKGYFDYWGQGTLVTVSS VL: EIVLTQSPDFQSVTPKEKVTITCRASQSVGSGLHWYQQKPDQSPKLLIKYASQSFSGVPSRFSGSGSGTDFTLTINSLETEDAATYFCQQSSSLPWTFGQGTKVEIKR | binds | binds | 7 nM | 330
SLC34A2 Ab 1 (antibody, human IgG1, kappa, V domains shown, recombinant hIgG1/kappa from TAP products in Expi293) VH: QVQLQESGPGLVKPSETLSLTCTVSGGSVSSGNFYWSWIRQPPGKGLEWIGYIYYSGSTYYNPSLKSRVTISVDTSKNQFSLKLRSLTAADTAVYYCARWMTKVKGYFDYWGQGTLVTVSS VL: EIVLTQSPDFQSVTPKEKVTITCRASQSVGSGLHWYQQKPDQSPKLLIKYASQSFSGVPSRFSGSGSGTDFTLTINSLEVEDAATFYCLQSSSLPWTFGQGTKVEIKR | binds | binds | 7 nM | 353
SLC34A2 Ab 12 (antibody, V domains shown, recombinant hIgG1/kappa from TAP products in Expi293) VH: QVQLQESGPGLVKPSETLSLTCTVSGGSISSSSYYRGWIRQPPGKGLEWIGSIYYSGSTYYNPSLKSRVTISVDTSKNQFSLKLSSVTAADTAVYYCARHPRGSYGANFDYWGQGTLVTVSS VL: not shown | binds | binds | 5 nM | 305
SLC34A2 Ab 13 (antibody, human IgG1, kappa, V domains shown, recombinant hIgG1/kappa from TAP products in Expi293) VH: QVQLVESGGGLVQPGRSLRLSCIGSGFTFGEYAMSWVRQAPGKGLEWVGFIRTKPYGGTTEFAASVKGRFTMSRDDSKSIAYLEMNSLKTEDTAVYYCTLIPALRFLEWLPWGQGTLVTVSS VL: EIVLTQSPSSLSASVGDRVTVTCRANQDINNYLAWYQQTPGKVPKLLIYAASTLQSGVPSRFSGSGSGTDFTLTISSLQPEDVATYYCQNYYSVPWTFGQGTKLEIKR | binds | binds | 41 nM | 233
SLC34A2 Ab 4 (antibody, human IgG1, kappa, V domains shown, recombinant hIgG1/kappa from TAP products in Expi293) VH: QVQLLESGGGLVQPGGSLRLSCAASGFTFSSYAMNWVRQAPGKGLEWVSAISGGVGNTYYADSVKGRFTISRDNSKNTLYLQMNSLRAEDTAVYYCTKDGPLWGNYFDYWGRGTLVTVSS VL: EIVLTQSPSSLSASVGDRVTITCRASQGISNYLAWYQQKPGKVPNLLIYTASTLQSGVPSRFSGSGSGTDFTLTISSLQPEDVATYYCQKYNSAPFTFGPGTKVDIKR | no binding | binds | 5 nM | 277
SLC34A2 Ab 7 (antibody, human IgG1, kappa, V domains shown, recombinant hIgG1/kappa from TAP products in Expi293) VH: QVQLQESGPELVKPSETLSITCTVSGGSISSRSYYWGWIRQPPGKGLEWIGSIYYGGSTYYNPSLKSRVTISADTSKNQFSLKLNSVTAADTAVFYCVRHPAGYSTRWSAFDIWGQGTMVTVSS VL: EIVLTQSPSSLSASVGDRVTITCRASQSISSYLNWYQQKPGRAPELLIYAASSLQSGVPSRFSGSGSGTDFTLTISSLQPEDFATYYCQQSFSSLTFGQGTRLEIKR | binds | binds | 16 nM | 278
